{
  "source": "patent US20140271661A1",
  "about": "(Bayer, published 2014)",
  "binders": {"B1": {"name": "TPP2009 hIgG1 (antibody, V domains shown)", "VH": "EVQLLESGGGLVQPGGSLRLSCAASGFTFSAYRMGWVRQAPGKGLEWVSRIYSSGGRTRYADSVKGRFTISRDNSKNTLYLQMNSLRAEDTAVYYCAREKASDLSGSFSEALDYWGQGTLVTVSS", "VL": "AQSVLTQDPAVSVALGQTVRITCQGDSLRSYYASWYQQKPGQAPVLVIYGKNNRPSGIPDRFSGSSSGNTASLTITGAQAEDEADYYCNSRDSSGNHLVFGGGTKLTVLG"}, "B2": {"name": "TPP-2016 hIgG (antibody, V domains shown)", "VH": "B1 VH with A31K, G35D, Y52G, S53P, R57K, R59T, A101T, F108Y", "VL": "DIQMTQSPATLSVSPGERATLSCRASQNINRNLAWYQQKPGRAPRLLIHTASTRAPGVPVRITGSGSGTEFTLTISSLEPEDFAVYFCQQYASPPRTFGQGTKVEIKR"}, "B3": {"name": "TPP2803 IgG2, Germlined and converted to IgG2 (antibody, V domains shown)", "VH": "B1 VH with A31S, G35S", "VL": "SSELTQDPAVSVALGQTVRITCQGDSLRSYYASWYQQKPGQAPVLVIYGKNNRPSGIPDRFSGSSSGNTASLTITGAQAEDEADYYCNSRDSSGNHLVFGGGTKLTVLG"}, "B4": {"name": "TPP-2019 hIgG (antibody, V domains shown)", "VH": "EVQLLESGGGLVQPGGSLRLSCAASGFTFSRYAMYWVRQAPGKGLEWVSRISPSGGKTHYADSVKGRFTISRDNSKNTLYLQMNSLRAEDTAVYYCARLSQTGYYPHYHYYGMDVWGQGTTVTVSS", "VL": "DIQMTQSPATLSLSPGERATLSCRASQRVSSSYLTWYQQKPGQAPRLLIYGASSRATGIPDRFSGSGSGTDFTLTISRLEPEDFAVYYCQQYDSTPPLTFGGGTKVEIKR"}},
  "key": {"[1]": {"target": "T1, human antithrombin β complexed with heparin (human ATβH) (human, UniProt P01008 33-464, lacks glycosylation at Asn135 (β glyco-isoform); complexed with heparin)", "T1 sequence (P01008 33-464, one chain of several)": "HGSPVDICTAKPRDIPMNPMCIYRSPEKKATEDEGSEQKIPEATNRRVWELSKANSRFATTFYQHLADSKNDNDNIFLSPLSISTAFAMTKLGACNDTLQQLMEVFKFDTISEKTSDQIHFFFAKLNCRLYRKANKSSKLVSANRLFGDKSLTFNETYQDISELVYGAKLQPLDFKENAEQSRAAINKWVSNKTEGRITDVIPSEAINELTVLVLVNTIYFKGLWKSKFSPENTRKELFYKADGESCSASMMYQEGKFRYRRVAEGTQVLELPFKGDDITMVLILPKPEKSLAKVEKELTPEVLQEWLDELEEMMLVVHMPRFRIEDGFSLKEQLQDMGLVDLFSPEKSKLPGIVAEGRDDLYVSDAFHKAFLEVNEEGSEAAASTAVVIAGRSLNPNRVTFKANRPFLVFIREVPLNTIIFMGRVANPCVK", "test": "cell-based or functional assay"}, "[2]": {"target": "rabbit antithrombin β complexed with heparin (rATβH) (rabbit)", "test": "cell-based or functional assay"}, "[3]": {"target": "cynomolgus antithrombin (ATβH species homolog, in Cyno plasma) (Cyno)", "test": "cell-based or functional assay"}, "[4]": {"target": "T1, human antithrombin β complexed with …", "test": "panning and screening of human antibody libraries against human ATβ in complex with heparin"}},
  "note": "Substitutions are numbered along the chain they refer to.",
  "data": [
    {"binder": "B1", "values": [
      {"measurement": "EC50, FXa-Activated Clotting Assay, human HEM A plasma", "setting": "[1]", "result": 4.7, "unit": "nM"},
      {"measurement": "EC50, FXa-Activated Clotting Assay, human normal plasma", "setting": "[1]", "result": 10.5, "unit": "nM"},
      {"measurement": "EC50, dPT (diluted prothrombin time), human HEM A plasma", "setting": "[1]", "result": 9, "unit": "nM"},
      {"measurement": "EC50, FXa-Activated Clotting Assay, rabbit HEM A plasma", "setting": "[2]", "result": 10.5, "unit": "nM"},
      {"measurement": "EC50, FXa-Activated Clotting Assay, rabbit normal plasma", "setting": "[2]", "result": 25.7, "unit": "nM"},
      {"measurement": "EC50, FXa-Activated Clotting Assay, cyno HEM A plasma", "setting": "[3]", "result": 4.3, "unit": "nM"},
      {"measurement": "EC50, FXa-Activated Clotting Assay, cyno normal plasma", "setting": "[3]", "result": 21.5, "unit": "nM"},
      {"measurement": "EC50, dPT (diluted prothrombin time), cyno HEM A plasma", "setting": "[3]", "result": 13.9, "unit": "nM"}
    ]},
    {"binder": "B2", "values": [
      {"measurement": "binding result", "setting": "[4]", "result": "binds"}
    ]},
    {"binder": "B3", "values": [
      {"measurement": "EC50, FXa-Activated Clotting Assay, human HEM A plasma", "setting": "[1]", "result": 2.7, "unit": "nM"},
      {"measurement": "EC50, FXa-Activated Clotting Assay, human normal plasma", "setting": "[1]", "result": 2.4, "unit": "nM"}
    ]},
    {"binder": "B4", "values": [
      {"measurement": "binding result", "setting": "[4]", "result": "binds"}
    ]}
  ]
}
